Reference: a protein production outcome set (Wang et al. 2014)

Assay: label from the status in PepcDB records

## MVNHGYPLGRSLLSIAMAMLGALSLVFPLPLLTQDMVDSERSLPLLGDHPLEERLIDGMDEGIKKNYRGAIAIFTELILLDPSYADAYFNRGIARARIADYQGAITDHSQAITLNPQLAEAYKARGKIYWQLGEQAQAIADLEAALALFSDQENLVSQREAWEQLQTWHGNP
  protein production: failed

## MFADRLFNAMERNEPAPGMVLVAAPSMESEDFARSVILIIEHSEYATFGVNLASRSDVAVFNVIPEWVPCVTKPQALYIGGPLNQQSVVGVGVTAQGVDAARVDNLTRLANRLVMVNLGADPEEIKPLVSGMRLFAGHAEWAPGQLAQEIENGDWFVAPALPSDVTAPGSVDVWGDVMRRQPMPLPLYSTFPVNVGEN
  protein production: not failed

## MTKAREFLGTGWKFPVAAGADGAMVLSSAEEDIAESIRIILGTARGERVMRPDFGCGIHDRVFSVINTTTLGLIENEVKEALILWEPRIELLSVTASPREAAEGRLLIDIEYRVRSTNTRFNLVYPFYLKESA
  protein production: not failed

## MLREAEVVVLGAGVAGLTLARLLWERGRKVLVVAEALGEASRPPVALVNPLRGRRFTLAEEGERALAAALAFYGRFVPLHLGVFRPVPEEDRPKVAGRLSRLKHRWEKEGVLLEEAFWLEPRPLLARLAEGLPLLRGRVLAWEPPWLVLEGGGRVRGEVLVYAGGGRGAHLLGLEGRHVPGLVLTLLDYFPRAVSYRVYLAGAALGGSYLPGEEGYRLPPPTEGEVEWLLQGAEALVGYRPRVASLWRGVRFRLSSFLFPVEGGFALTGFGSTGFLYAPLLAERLAERLLEHHHHHH
  protein production: failed

## SAQSLSSEPDILFLDGWQLRYQAFAARADDPRPPVLLLGGAFQSFRSFTGEVSELLAEHPVILLDLPSQGGNLQLAAELSLEDLADLIAAFAEQLGLPPLMPIGLSYGSALAALFAARHPRRCARLLLAGITAFGRPGARLLLEEALARLDEGDQSAFAHGVLTGLINPLQLERTGVSPVFRKAMLRQLQRLTAAEIERYRQNSRRLLAFGGFERHPTCPTLVLAGEYDHFTQPWEHAVFAHACGNAEFALIHDADHLAQFERREACARLYGPFLRG
  protein production: failed

## AEDPILRAIPENAFDGIAVTDAGGHVVYANSTYLALTGAATMQDVRPVERVFIGNPDVSEAVFRLLKAAREGRRLQEEVRVAGADGTQGRWMRLRVRPLGTSKREARQTVWSIADITRDRERQEDVFQTLQHAIEYLDHAPCGFFSVNPAGNLVYVNATLANWLDH
  protein production: failed

## MKQMKFKYAYQLFFTQFIILLIACIMIGVLVSHSLKDYFYQSQVDDLTSYGQTISRDIRYSPQDATMQVLNTYQRILDVKKIHYTIKNANDETIYPTQMNQPLPKDFSISADDKKKLESGETVSKKIDNRFNKEMTIVYVPIMNGDKFVGSIVLNSPISGTEQVIGTINRYMFYTILLSITVALILSAILSKLQVNRINKLRAATKDVIQGNYNARLKENNFDEIGALAIDFNKMTQTLETSQEEIERQEKRRRQFIADVSHEMRTPLTTISGLTEGLVNDIIPKSETDRCIALIDTEARRLTKLVNENLDYEKIRSNKIKLQKTRFNGKEFLELIKEQLDYVASEKGNTITVAIDKDMAIYADYDRLTQVFINIVKNSVQFTENGQITLTGTQDYKESVLTITDTGIGMNTEELEQIWERFYKADMSRTNTAFGESGIGLSIVKQLIEYHDGSITVTSEPNKGTSFTIRLPFFQDNEQ
  protein production: failed

## MTESKKLWTGHIHLGEKVDFGVILNQLCQAFNGSPFFSHNAMQMRVIDNQIEGYIDMQPYLIGNVAFQILHGGVAATLLDSIGGIVAMAEIYRRAEATEMAEAIKKVSRLATVDMRVDYLAPGRGQYFIARAEVLRFGRKGCTMRMNLINDENKAIATAIASYAF
  protein production: failed

## MNSPETTWTEENSSCALHLHWYALCERKDLVANSGVVAWLDGKQLALFYLPDTAQGEQLFAIDNRDPKSGANVIGRGLTGQIAGELVIASPLYKQHFRLHDGSCIEYPEQRLEVWPVRLNGERVEIAV
  protein production: failed

## MKSLHRPDLYSWSTFNPARNIDFNGFAWIRPEGNILIDPVALSNHDWKHLESLGGVVWIVLTNSDHVRSAKEIADQTYTKIAGPVAEKENFPIYCDRWLSDGDELVPGLKVMELQGSKTPGELALLLEETTLITGDLVRAYRAGGLEILPDEKLMNKQKVVASVRRLAALEKVEAVLVGDGWSVFRDGRDRLKELVATLA
  protein production: not failed

## LGIAINEMIRMLRAARDEDDRRNWLKDGYGQVSAALTGDLTTEQLADAAIGLIGRYLDAGRGVFYLYRDAEQRLDLIGSYMYTERNNLGASFALGEGAVGQVARERKPIILEVSGDDAAPIVTGTMLALPRYTYTYPLLHEKELVGVIELSSFDHFDERKLEFLANVGGMLASFL
  protein production: failed
